According to the supplement of paper PMC10567573:

B1: MMP1 (parent)
chain: YTPDLPRADVDHAIEKAFQLWSNV

Variants of: B1
Experiment: protein stability index of a GFP-peptide fusion (GPS, HEK-293T) (PSI 1-6); higher = more stable
Settings: c terminus: a fixed tail appended
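Note: lentivirally expressed fusions sorted by FACS into six bins by GFP to DsRed ratio, PSI derived from sequencing read proportions per bin multiplied by bin number.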

Variant	protein stability index
YTPDLPRADVDHAIWKAFQLWSNV [E15W]	1.83
YIPDLPRADVDHAIEKAFQLWSNV [T2I]	2.52
YPPDLPRADVDHAIEKAFQLWSNV [T2P]	2.17
YVPDLPRADVDHAIEKAFQLWSNV [T2V]	1.95
YDPDLPRADVDHAIEKAFQLWSNV [T2D]	3.08
YGPDLPRADVDHAIEKAFQLWSNV [T2G]	2.4
YMPDLPRADVDHAIEKAFQLWSNV [T2M]	2.35
YSPDLPRADVDHAIEKAFQLWSNV [T2S]	1.95
YEPDLPRADVDHAIEKAFQLWSNV [T2E]	3.6
YQPDLPRADVDHAIEKAFQLWSNV [T2Q]	1.74
YYPDLPRADVDHAIEKAFQLWSNV [T2Y]	2.45
YRPDLPRADVDHAIEKAFQLWSNV [T2R]	2.31
YTPDLPPADVDHAIEKAFQLWSNV [R7P]	1.81
YTPDLPHADVDHAIEKAFQLWSNV [R7H]	1.89
YTPDLPGADVDHAIEKAFQLWSNV [R7G]	1.91
YTPDLPSADVDHAIEKAFQLWSNV [R7S]	1.75
YTPDLPTADVDHAIEKAFQLWSNV [R7T]	1.88
YTPDLPVADVDHAIEKAFQLWSNV [R7V]	2.12
YTPDLPDADVDHAIEKAFQLWSNV [R7D]	1.79
YTPDLPEADVDHAIEKAFQLWSNV [R7E]	1.94
YTPDSPRADVDHAIEKAFQLWSNV [L5S]	2.05
YTPDGPRADVDHAIEKAFQLWSNV [L5G]	1.32
YTPDKPRADVDHAIEKAFQLWSNV [L5K]	1.91
YTPDAPRADVDHAIEKAFQLWSNV [L5A]	2.11

Variant	protein stability index
YTPDIPRADVDHAIEKAFQLWSNV [L5I]	2.1
YTPDDPRADVDHAIEKAFQLWSNV [L5D]	2.34
YTPDVPRADVDHAIEKAFQLWSNV [L5V]	2.89
YTPDPPRADVDHAIEKAFQLWSNV [L5P]	1.81
YTPDLPRADVHHAIEKAFQLWSNV [D11H]	2.07
YTPDLPRADVYHAIEKAFQLWSNV [D11Y]	1.7
YTPDLPRADVQHAIEKAFQLWSNV [D11Q]	1.83
YTPDLPRADVMHAIEKAFQLWSNV [D11M]	2.12
YTPDLPRADVNHAIEKAFQLWSNV [D11N]	1.63
YTPDLPRADVSHAIEKAFQLWSNV [D11S]	1.96
YTPDLPRADVGHAIEKAFQLWSNV [D11G]	3.41
YTPDLPRADVLHAIEKAFQLWSNV [D11L]	1.96
YTPDLPRADVCHAIEKAFQLWSNV [D11C]	2.17
YTPDLERADVDHAIEKAFQLWSNV [P6E]	1.83
YTPDLVRADVDHAIEKAFQLWSNV [P6V]	2.12
YTPDLCRADVDHAIEKAFQLWSNV [P6C]	2.05
YTPDLWRADVDHAIEKAFQLWSNV [P6W]	2.06
YTPDLLRADVDHAIEKAFQLWSNV [P6L]	1.32
YTPDLQRADVDHAIEKAFQLWSNV [P6Q]	2.03
YTPDLKRADVDHAIEKAFQLWSNV [P6K]	2.12
YTPDLHRADVDHAIEKAFQLWSNV [P6H]	1.55
YTPDLPRADYDHAIEKAFQLWSNV [V10Y]	2.71
YTPDLPRADGDHAIEKAFQLWSNV [V10G]	1.96
YTPDLPRADMDHAIEKAFQLWSNV [V10M]	2.56

Variant	protein stability index
YTPDLPRADVDHAIEKEFQLWSNV [A17E]	1.84
YTPDLPRADVDHAIEKGFQLWSNV [A17G]	1.93
YTPDLPRADVDHAIEKYFQLWSNV [A17Y]	1.68
YTPDLPRADVDHAIEKQFQLWSNV [A17Q]	1.82
YTPDLPRADVDHAIEKDFQLWSNV [A17D]	1.97
YTPDLPRADVDHAIEKTFQLWSNV [A17T]	2.54
YTPDLPRADVDHAIEKCFQLWSNV [A17C]	1.83
YTTDLPRADVDHAIEKAFQLWSNV [P3T]	1.84
YTIDLPRADVDHAIEKAFQLWSNV [P3I]	1.92
YTHDLPRADVDHAIEKAFQLWSNV [P3H]	1.79
YTMDLPRADVDHAIEKAFQLWSNV [P3M]	1.88
YTWDLPRADVDHAIEKAFQLWSNV [P3W]	2.87
YTPDLPRKDVDHAIEKAFQLWSNV [A8K]	2.58
YTPDLPRCDVDHAIEKAFQLWSNV [A8C]	2.07
YTPDLPRYDVDHAIEKAFQLWSNV [A8Y]	1.93
YTPDLPRNDVDHAIEKAFQLWSNV [A8N]	1.41
YTPDLPRSDVDHAIEKAFQLWSNV [A8S]	1.68
YTPDLPRADVDHAIEKAFQLSSNV [W21S]	3.25
YTPDLPRADVDHAIEKAFQLESNV [W21E]	3.74
YTPDLPRADVDHAIEKAFQLLSNV [W21L]	3.56
YTPDLPRADVDHAIEKAFQLMSNV [W21M]	3.03
YTPDLPRADVDHAIEKAFQLVSNV [W21V]	3.18
YTPMLPRADVDHAIEKAFQLWSNV [D4M]	2.23
YTPLLPRADVDHAIEKAFQLWSNV [D4L]	3.1

Variant	protein stability index
YTPILPRADVDHAIEKAFQLWSNV [D4I]	2.75
YTPCLPRADVDHAIEKAFQLWSNV [D4C]	1.69
YTPGLPRADVDHAIEKAFQLWSNV [D4G]	2.16
YTPDLPRADVDHAIEKAFQLWSNL [V24L]	1.65
YTPDLPRADVDHAIEKAFQLWSNS [V24S]	1.66
YTPDLPRADVDHAIEKAFQLWSNY [V24Y]	2.63
YTPDLPRADVDHAIEKAFQLWSNH [V24H]	1.71
YTPDLPRADVDHAIEKAFQLWSNA [V24A]	2.06
YTPDLPRADVDHAIEKAFQLWSNQ [V24Q]	2.14
YTPDLPRADVDHAIEKAFQLWSNN [V24N]	1.94
YTPDLPRADVDHAIEKAFQLWSNM [V24M]	2.29
YTPDLPRADVDHAIEKAFQLWSNR [V24R]	1.53
YTPDLPRADVDHAIEKAFQLWSNI [V24I]	1.79
YTPDLPRAMVDHAIEKAFQLWSNV [D9M]	2.31
YTPDLPRASVDHAIEKAFQLWSNV [D9S]	2.55
YTPDLPRACVDHAIEKAFQLWSNV [D9C]	1.75
YTPDLPRAAVDHAIEKAFQLWSNV [D9A]	1.38
YTPDLPRAYVDHAIEKAFQLWSNV [D9Y]	2.35
YTPDLPRAHVDHAIEKAFQLWSNV [D9H]	2.51
YTPDLPRAQVDHAIEKAFQLWSNV [D9Q]	2.5
YTPDLPRANVDHAIEKAFQLWSNV [D9N]	1.59
YTPDLPRAGVDHAIEKAFQLWSNV [D9G]	2.49
